Here are results for 24 molecules from patent publication US20060193821, “Aptamers to the human IL-12 cytokine family and their use as autoimmune disease therapeutics” (published 2006).

The target in data set [1] is T1, IL-23 (human, p19/p40 heterodimer) (Homo sapiens, UniProt Q9NPF7;P29460 SEQ:20-189,SEQ:23-328). As to the kind of experiment: cell_activity; TransAM STAT3, PHA blasts. As to conditions: tags: R&D Systems. How it is done: (§1) In summary, the cell-based assay was conducted by isolating the peripheral blood mononuclear cells (PBMCs) from whole blood using a Histopaque gradient (Sigma, St. Louis, Mo.). The PBMCs were cultured for 3 to 5 days at 37° C./5% CO₂ in Peripheral Blood Medium (Sigma) which contains PHA, supplemented with IL-2 (100 units/mL) (R&D Systems, Minneapolis, Minn.), to generate PHA Blasts. To test IL-23 aptamers, the PHA Blasts were washed twice with 1×PBS, then serum starved for four hours in RPMI, 0.20% FBS. After serum starvation, approximately 2 million cells were aliquotted into appropriately labeled eppendorf tubes. hIL-23 at a final constant concentration of 3 ng/mL (R&D Systems, Minneapolis, Minn.) was combined with a dilution series of various IL-23 aptamers as described in Example 1, and the cytokine/aptamer mixture was added to the aliquotted cells in a final volume of 100 μl and incubated at 37° C. for 10-12 minutes. The incubation reaction was stopped by adding 1 mL of ice-cold PBS with 1.5 mM Na₃VO₄. Cell lysates were made using the lysis buffer provided by the TransAM™ STAT 3 assay following the manufacturer's instructions. FIG. 20 depicts a flow summary of the protocol used for the cell based assay.
T1 sequence (Q9NPF7 20-189, chain 1 of 2): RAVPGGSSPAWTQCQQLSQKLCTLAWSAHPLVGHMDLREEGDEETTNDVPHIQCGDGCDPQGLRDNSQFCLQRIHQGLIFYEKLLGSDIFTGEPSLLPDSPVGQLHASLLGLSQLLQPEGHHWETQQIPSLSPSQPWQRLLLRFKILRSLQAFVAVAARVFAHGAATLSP
T1 sequence (P29460 23-328, chain 2 of 2): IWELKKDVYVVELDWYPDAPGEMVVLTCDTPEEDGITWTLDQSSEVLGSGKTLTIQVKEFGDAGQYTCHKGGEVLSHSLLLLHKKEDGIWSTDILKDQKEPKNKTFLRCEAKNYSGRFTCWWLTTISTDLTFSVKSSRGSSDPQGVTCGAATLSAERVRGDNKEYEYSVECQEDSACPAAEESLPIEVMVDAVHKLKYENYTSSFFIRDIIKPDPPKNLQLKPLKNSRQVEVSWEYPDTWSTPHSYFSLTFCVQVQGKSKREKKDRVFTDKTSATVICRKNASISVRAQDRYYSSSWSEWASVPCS
(§2) Full length clones from the rRfY selection described in Example 1A, and select minimized rRfY clones that were described in Example 2A. 1, were tested using the TransAM™ STAT3 activation assay. Table 34 summarizes the cell based assay data for IL-23 full length aptamers generated from the rRfY selections described in Example 1A. 1, each compared to the activity of their respective parent (full length) clone.

For data set [2], the target named is T1, IL-23 (human, p19/p40 heterodimer). Nature of the data set: filter; SHMCK, tRNA. The conditions noted are these: tags: R&D Systems, carrier free. Here is the method: Monitoring Progress of rRfY Selection. Dot blot binding assays were performed throughout the selections to monitor the protein binding affinity of the pools. Trace ³²P-labeled RNA was combined with a dilution series of h-IL-23 and incubated at room temperature for 30 minutes in 1×SHMCK (20 mM Hepes, 120 mM NaCl, 5 mM KCl, 1 mM MgCl₂, 1 mM CaCl₂, pH 7.4) plus 0.1 mg/mL tRNA for a final volume of 20 μL. The binding reactions were analyzed by nitrocellulose filtration using a Minifold I dot-blot, 96-well vacuum filtration manifold (Schleicher & Schuell, Keene, N.H.). A three-layer filtration medium was used, consisting (from top to bottom) of Protran nitrocellulose (Schleicher & Schuell), Hybond-P nylon (Amersham Biosciences) and GB002 gel blot paper (Schleicher & Schuell). RNA that is bound to protein is captured on the nitrocellulose filter, whereas the non-protein bound RNA is captured on the nylon filter. The gel blot paper was included simply as a supporting medium for the other filters. Following filtration, the filter layers were separated, dried and exposed on a phosphor screen (Amersham Biosciences, Piscataway, N.J.) and quantified using a Storm 860 Phosphorimager® blot imaging system (Amersham Biosciences).
When a significant positive ratio of binding of RNA in the presence of h-IL-23 versus in the absence of h-IL-23 was seen, the pools were cloned using a TOPO TA cloning kit (Invitrogen, Carlsbad, Calif.) according to the manufacturer's instructions. For the h-IL-23 and X-IL-23 selections, the Round 8 pool templates were cloned, and 32 individual clones from each selections were assayed in a 1-point dot blot screen (+/−75 nM h-IL-23, as well as a separate screen at +/−75 nM h-IL-12). For the PN-IL-23 selection, the Round 10 pool was cloned and sequenced, and 8 unique clones were assayed for protein binding in a 1-point dot blot screen (+/−200 nM h-IL-23 and a separate screen at +/−200 nM h-IL-12). Subsequently, the Round 10 PN-IL-23 pool was re-cloned for further sequences, as well as the R12 PN-IL-23 pool, and the clones were assayed for protein binding in a 1 point do blot screen (+/−100 nM h-IL-23 or +/−200 nM h-IL-12).

Data set [3] shares this target. Nature of the data set: cell_activity; TransAM STAT3. The conditions noted are these: tags: R&D Systems, carrier free. Here is the method:
as §1, §2

The target in data set [4] is IL-12 (human, p35/p40 heterodimer) (Homo sapiens, UniProt P29459;P29460 SEQ:57-253,SEQ:23-328). Nature of the data set: filter; no significant binding.
Chain of IL-12 (human, p35/p40 heterodimer) (P29459 23-219, chain 1 of 2): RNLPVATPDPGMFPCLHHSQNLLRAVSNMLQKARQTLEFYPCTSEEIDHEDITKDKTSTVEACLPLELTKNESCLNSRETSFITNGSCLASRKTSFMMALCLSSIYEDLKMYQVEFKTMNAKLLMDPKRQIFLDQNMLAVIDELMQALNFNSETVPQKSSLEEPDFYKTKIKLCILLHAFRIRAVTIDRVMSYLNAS
Chain of IL-12 (human, p35/p40 heterodimer) (P29460 23-328, chain 2 of 2): as the sequence (P29460 23-328, chain 2 of 2) above

B1: AMX91-H8 (ssRNA)
RNA: GGGAAAAGCGAAUCAUACACAAGAACGCAUAGUCGGAUUUACCGAUCAUUCUGUGCCUUCGUGACGCUCCGCCAGAGACCAACCGAGAA
modifications: 2'-F C and U, 2'-OH A and G
In general, IC50 refers to the midpoint of a concentration-inhibition curve. A higher IC50 goes with weaker potency. Molecule B1 had an IC50 in data set [1] of 3000 nM.

B2: AMX91-H3 (ssRNA)
RNA: GGGAAAAGCGAAUCAUACACAAGACAUUGUGCUUUAUCACGUGGGUGAUAACGACGAAAGUUAUGCUCCGCCAGAGACCAACCGAGAA
modifications: 2'-F C,U
As a reminder, the Kd is the equilibrium constant for the complex coming apart. A low value points to higher affinity. As for B2, the Kd in data set [2] was 266 nM. This molecule also had an IC50 in data set [3] of 50 nM. Further, the binding result in data set [4] is reported as “no binding”.

B3: AMX86-D5 (ssRNA)
RNA: GGGAAAAGCGAAUCAUACACAAGAGAGGUAUGUGGUUUUGCGGAGCAACUCGUGUCAGCGGUCAGCUCCGCCAGAGACCAACCGAGAA
modifications: 2'-F C and U, 2'-OH A and G
For B3, the 50% inhibitory concentration (IC50) in data set [1] is above 5000 nM.

B4: AMX84-A11 (ssRNA)
RNA: B3 RNA
modifications: 2'-F C and U, 2'-OH A and G
Turning to B4, the IC50 in data set [1] is above 5000 nM.

B5: AMX84-F11 (ssRNA)
RNA: GGGAAAAGCGAAUCAUACACAAGAUGUGCUUGAGUUAAAUCUCAUCGUCCCCGUUUGGGGAUAUGCUCCGCCAGAGACCAACCGAGAA
modifications: 2'-F C,U
With B5, 250 nM corresponded to half-maximal inhibition in data set [3] (IC50).

B6: B10.min4 (ssRNA)
RNA: GGAGCAUACACAAGAAGUGCUUCAUGCGGCAAACUGCAUGACGUCGAAUAGAUAUGCUCC
modifications: 2'-F C,U
Take B6: in data set [3], the 50% inhibitory concentration (IC50) came to 500 nM.

B7: AMX91-A6 (ssRNA)
RNA: GGGAAAAGCGAAUCAUACACAAGAUUGGCAAUGUGACCUUCAACCCUUUUCCCGAUGAACAGUGGCUCCGCCAGAGACCAACCGAGAA
modifications: 2'-F C and U, 2'-OH A and G
In turn, B7 registered an IC50 in data set [1] of 3000 nM.

B8: AMX91-B8 (ssRNA)
RNA: GGGAAAAGCGAAUCAUACACAAGAAUCCUGGCUUCGCAUAGUGUAUGGGUAGUACGACAGCGCGUGCUCCGCCAGAGACCAACCGAGAA
modifications: 2'-F C and U, 2'-OH A and G
B8 showed a concentration for half-maximal inhibition (IC50) in data set [1] of 450 nM.

B9: AMX91-G7 (ssRNA)
RNA: GGGAAAAGCGAAUCAUACACAAGACAUGACUGCAUGCUUCGGGAGUAUCUCGGUCCCGACGUUCGCUCCGCCAGAGACCAACCGAGAA
modifications: 2'-F C,U
B9: the Kd in data set [2] turned out to be 63.6 nM. 150 nM corresponded to half-maximal inhibition in data set [3] (IC50). Besides, the binding result in data set [4] is “no binding”.

B10: A10.min5 (ssRNA)
RNA: GGAGCAUACACAAGAAGUUUUUUGUGCUCUGAGUACUCAGCGUCCGUAAGGGAUAUGCUCC
modifications: 2'-F C,U
In data set [3], B10 returned a half-inhibitory concentration (IC50) of 300 nM.

B11: AMX84-C10 (ssRNA)
RNA: GGGAAAAGCGAAUCAUACACAAGAGAUGUAUUCAGGCGGUCCGCAUUGAUGUCAGUUAUGCGUAGCUCCGCCAGAGACCAACCGAGAA
modifications: 2'-F C,U
As for B11, binding in data set [2] was put at a Kd of 94.3 nM. In data set [3], this molecule returned an IC50 of 250 nM. In data set [4], the binding result is recorded as “no binding”.

B12: AMX84-C11 (ssRNA)
RNA: GGGAAAAGCGAAUCAUACACAAGAAUGGUCGGAAUCUCUGGCGCCACGCUGAGUAUAGACGGAAGCUCCGCCAGAGACCAACCGAGAA
modifications: 2'-F C and U, 2'-OH A and G
The molecule B12 returned a 50% inhibitory concentration (IC50) in data set [1] of 800 nM.

B13: AMX91-C12 (ssRNA)
RNA: GGGAAAAGCGAAUCAUACACAAGACGAUAGUAUGACCUUUUGAAAGGCUUCCCGAGCGGUGUUCGCUCCGCCAGAGACCAACCGAGAA
modifications: 2'-F C,U
In the case of B13, in data set [2], the dissociation constant (Kd) amounted to 30.7 nM. For the same molecule, the midpoint of inhibition in data set [3], the IC50, lay at 50 nM. In addition, the binding result in data set [4] is “no binding”.

B14: AMX86-B10 (ssRNA)
RNA: GGGAAAAGCGAAUCAUACACAAGAGAACGAGUAUAUUUGCGCUGGCGGAGAAGUCUCUCGAAGGGAGCUCCGCCAGAGACCAACCGAGAA
modifications: 2'-F C and U, 2'-OH A and G
On to B14, for which the IC50 in data set [1] is 800 nM.

B15: AMX91-G1 (ssRNA)
RNA: GGGAAAAGCGAAUCAUACACAAGAUAUGUGCCUGGGAUGGACGACAUCCCCUGUCUAAGGAUAUGCUCCGCCAGAGACCAACCGAGAA
modifications: 2'-F C and U, 2'-OH A and G
With B15, the half-maximal inhibitory concentration (IC50) in data set [1] stood at 2000 nM.

B16: AMX91-G9 (ssRNA)
RNA: GGGAAAAGCGAAUCAUACACAAGAAUUGUGCUUACAACUUUCGUUGUACCGACGUGUCAGUUAUGCUCCGCCAGAGACCAACCGAGAA
modifications: 2'-F C,U
Molecule B16 had a Kd in data set [2] of 33 nM. Further, the IC50 in data set [3] is 50 nM. The binding result in data set [4] was “no binding”.

B17: AMX84-G11 (ssRNA)
RNA: GGGAAAAGCGAAUCAUACACAAGAGUGCUUCGUAUGUUGAAUACGACGUUCGCAGGACGAAUAUGCUCCGCCAGAGACCAACCGAGAA
modifications: 2'-F C,U
B17 had a dissociation constant Kd in data set [2] of 291 nM. In addition, the IC50 in data set [3] is 250 nM. For the same molecule, the binding result in data set [4] is reported as “no binding”.

B18: AMX91-G11 (ssRNA)
RNA: GGGAAAAGCGAAUCAUACACAAGACUUAACAGUGCGGGGCGCAGUGUAUAGAUCCGCAAUGUGUGCUCCGCCAGAGACCAACCGAGAA
modifications: 2'-F C and U, 2'-OH A and G
In data set [1], B18 showed an IC50 of 3000 nM.

B19: AMX91-F11 (ssRNA)
RNA: GGGAAAAGCGAAUCAUACACAAGACGCGUCAGGUCCACGCUGAAAUUUAUUUUCGGCAGUGUAAGCUCCGCCAGAGACCAACCGAGAA
modifications: 2'-F C and U, 2'-OH A and G
For B19, in data set [1], the half-maximal inhibitory concentration (IC50) was found to be 5000 nM.

B20: AMX91-E3 (ssRNA)
RNA: GGGAAAAGCGAAUCAUACACAAGAUUACUCCGUUAGUGUCAGUUGACGGAGGGAGCGUACUAUUGCUCCGCCAGAGACCAACCGAGAA
modifications: 2'-F C and U, 2'-OH A and G
Regarding B20, the concentration for half-maximal inhibition (IC50) in data set [1] is above 5000 nM.

B21: AMX91-D9 (ssRNA)
RNA: GGGAAAAGCGAAUCAUACACAAGAGUGUAUUACCCCCAACCCAGGGGGACCAUUCGCGUAACAAGCUCCGCCAGAGACCAACCGAGAA
modifications: 2'-F C,U
With B21, binding in data set [2] was characterised by a dissociation constant (Kd) of 44.6 nM. In addition, the midpoint of inhibition in data set [3], the IC50, lay at 150 nM. The binding result in data set [4] is listed as “no binding”.

B22: AMX91-H7 (ssRNA)
RNA: GGGAAAAGCGAAUCAUACACAAGACUUAUCGCCUCAAGGGGGGUAAUAAACCCAGCGUGUGCAUGCUCCGCCAGAGACCAACCGAGAA
modifications: 2'-F C,U
Molecule B22 yielded a Kd in data set [2] of 71 nM. Moreover, the half-inhibitory concentration (IC50) in data set [3] amounted to 50 nM. In addition, in data set [4], the binding result is listed as “no binding”.

B23: AMX86-C5 (ssRNA)
RNA: GGGAAAAGCGAAUCAUACACAAGAGUUUUAUGUGGGUCCCGAUGAUUAACUUUAUUGGCGCAUUGCUCCGCCAGAGACCAACCGAGAA
modifications: 2'-F C and U, 2'-OH A and G
The molecule B23 had an IC50 in data set [1] of 3000 nM.

B24: AMX86-D6 (ssRNA)
RNA: GGGAAAAGCGAAUCAUACACAAGAUUAGGCGUCGUGACAAUAACUGGUCCACGAGCAUGUCAGUGCUCCGCCAGAGACCAACCGAGAA
modifications: 2'-F C and U, 2'-OH A and G
In data set [1], B24 returned an IC50 above 5000 nM.
